Data: patent US20250295796A1, “CELL PENETRATING POLYPEPTIDES (CPPS) AND THEIR USE IN HUMAN THERAPY” (RDP PHARMA AG, priority 2021, published 2025)

What was measured:
PATU8988T = assay: Propidium iodide monolayer assay, PATU8988T; assay type: cell-based, human; settings: four days
Protocol: (§1) Monolayer Assay Propidium Iodid (PI). Cells were harvested from exponential phase cultures, counted and depending on the cell line 3.000 to 20.000 cells were plated in 96-well flat-bottom microtiter plates After a 24 h recovery period to allow cells to resume exponential growth, 10 μl of culture medium (four control wells/plate) or culture medium with the test compound were added by a liquid handling robotic system and treatment continued for four days. Compounds were applied in half-log increments at 10 concentrations in duplicate. Three independent experiments were performed. Cells were then washed with 200 μl PBS to remove dead cells followed by addition of 200 μl of a solution containing 7 μg/ml propidium iodide (PI) and 0.1% (v/v) Triton X-100. After an incubation period of 1-2 h at room temperature, fluorescence (FU) was measured using the Cytofluor 4000 microplate reader (excitation λ=530 nm, emission λ=620 nm) to quantify the amount of attached viable cells. […]
(§2) CROMOC36—in vitro activity Human pancreatic carcinoma cell lines. […] Antitumor activity was assessed after four days of CROMOC36 treatment using a propidium iodide based monolayer proliferation assay. […]

[1] = test system: 80 different human tumor cell lines; assay: Monolayer SRB staining assay for 72 hours, 80 human tumor cell lines; assay type: cell-based; settings: 55/80 cell lines, SRB 72 hours
Protocol: Cells were harvested from exponential phase cultures, and depending on the cell line 10.000 to 30.000 cells were plated in 96-well flat-bottom microtiter plates. After a 24 h recovery period to allow cells to resume exponential growth, supernatant was discarded and 100 μl of culture medium (eight control wells/plate) or culture medium with the test compound were added by a liquid handling robotic system (Microlab® Starlet, Hamilton) and treatment continued for 72 hrs. Compounds were applied at 9 concentrations eight wells/concentration). At least three independent experiments were performed. For SRB staining, cells were fixed with SRB01 for 1h at 4° C. (final concentration of TCA=10%) washed with a plate washer (Hydroflex, Tecan©) for five times with H2O; and stained with 100 μl of SRB02 at room temperature for 10 min following 4 washes in SRB03 and finally 100 μl of developer solution SRB04 for 5 minutes with shaking. Optical density was assessed using a plate-reader (Sunrise, Tecan©) at 540 nm. […]
To analyze the cytostatic activity in different tumor cell lines, the in vitro activity of CROMOC36 was analyzed in 80 different human tumor cell lines representing the mayor tumor indications by the Monolayer Sulphorhodamine B (SRB) staining assay for 72 hours.

HUPT3 = assay: Propidium iodide monolayer assay, HUPT3; assay type: cell-based, human; settings: HUPT3, four days
Protocol: as §1, §2

[2] = test system: human pancreatic tumor cell lines; assay: Propidium iodide based monolayer proliferation assay, panel of 13 human pancreatic tumor cell lines
Protocol: (§3) Monolayer Assay Propidium Iodid (PI). Cells were harvested from exponential phase cultures, counted and depending on the cell line 3.000 to 20.000 cells were plated in 96-well flat-bottom microtiter plates After a 24 h recovery period to allow cells to resume exponential growth, 10 μl of culture medium (four control wells/plate) or culture medium with the test compound were added by a liquid handling robotic system and treatment continued for four days. Compounds were applied in half-log increments at 10 concentrations in duplicate. Three independent experiments were performed. Cells were then washed with 200 μl PBS to remove dead cells followed by addition of 200 μl of a solution containing 7 μg/ml propidium iodide (PI) and 0.1% (v/v) Triton X-100. After an incubation period of 1-2 h at room temperature, fluorescence (FU) was measured using the Cytofluor 4000 microplate reader (excitation λ=530 nm, emission λ=620 nm) to quantify the amount of attached viable cells. Concentrations required for 50% inhibition of cell growth (IC50) were calculated by non-linear regression (log[conc. of inhibitor]versus response (% T/C)) using the analysis software GraphPad Prism®, Prism 5 for windows, version 5.01 (GraphPad Software Inc., CA).
CROMOC36—in vitro activity Human pancreatic carcinoma cell lines. The aim of this study was to investigate the antitumor activity of CROMOC36 in vitro on a panel of 13 human pancreatic tumor cell lines. Antitumor activity was assessed after four days of CROMOC36 treatment using a propidium iodide based monolayer proliferation assay. Up to four experiments were performed in each cell line, testing CROMOC36 at ten concentrations in half-log increments up to 1 μM. Taxol, an antitumor agent commonly used for the treatment of pancreatic cancer, was used as a reference compound and tested in half-log steps up to 0.3 μM.

PAXF 1657L = assay: Propidium iodide monolayer assay, PAXF 1657L; assay type: cell-based, human; settings: four days
Protocol: as §1, §2

[3] = test system: IMR32 human neuroblastoma xenograft; assay: IMR32 human neuroblastoma xenograft model; assay type: in vivo, mice; settings: q14dx2
From the text: FIG. 11: IMR32 s.c. implanted. Treatment on xenograft mice with advanced tumors (volume >50 mm^3). Variation in tumor volume expressed as percentage with respect to initial volume (day 0; designated as 100%). Final measurements for vehicle (PBS) and Doxorubicin groups were taken on day 42. For the remaining groups, final measurements were taken on day 63, the termination day of the experiment. Growth reduction compared to controls on day 42 (p<0.01).
The aim of this study was to assess the in vivo efficacy of CROMOC36 on a IMR32 human neuroblastoma xenograft model. CROMOC36 was administered subcutaneously (s.c.) at intervals of two weeks (q14dx2) at two different doses (32 mg/Kg) and also in combination with doxorubicin administered intravenously (i.v.) (32/kg CROMOC36+4+4 mg/Kg doxorubicin, s.c and i.v., q14dx2). Doxorubicin was also used alone as a reference compound (8 mg/kg, i.v., q14dx2). Vehicle was PBS.

[4] = test system: immortalized non-tumor cells; assay: SRB assay, cytotoxicity to non-tumor cells versus cancer cells
[5] = test system: murine Lewis lung carcinoma; assay: Lewis lung carcinoma (LLC) model, primary tumor growth and metastasis
Protocol: The efficacy of CROMOC36 on the Lewis lung carcinoma (LLC) model, was selected for testing the activity of CROMOC36 against primary tumor growth and metastasis formation. CROMOC36 was tested as a single agent and in combination with Cyclophosphamide (CYPP). In addition, single-agent CYPP was used as a reference compound, allowing comparison of the efficacy of CROMOC36 with a commonly used antitumor agent (summarized in FIG. 9).

[6] = test system: lung cancer, ovarian cancer and neuroblastoma and colon cancer cells; assay: SRB assay for 96 hours, cancer cells; assay type: cell-based; settings: SRB 96 hours, various cancer cells; read-out: IC50 range
Protocol: Cells were harvested from exponential phase cultures, and depending on the cell line 10.000 to 30.000 cells were plated in 96-well flat-bottom microtiter plates. After a 24 h recovery period to allow cells to resume exponential growth, supernatant was discarded and 100 μl of culture medium (eight control wells/plate) or culture medium with the test compound were added by a liquid handling robotic system (Microlab® Starlet, Hamilton) and treatment continued for 72 hrs. Compounds were applied at 9 concentrations eight wells/concentration). At least three independent experiments were performed. For SRB staining, cells were fixed with SRB01 for 1h at 4° C. (final concentration of TCA=10%) washed with a plate washer (Hydroflex, Tecan©) for five times with H2O; and stained with 100 μl of SRB02 at room temperature for 10 min following 4 washes in SRB03 and finally 100 μl of developer solution SRB04 for 5 minutes with shaking. Optical density was assessed using a plate-reader (Sunrise, Tecan©) at 540 nm. Concentrations required for 50% inhibition of cell growth (IC50) were calculated by non-linear regression (log[conc. of inhibitor] versus response (% T/C)) using the analysis software GraphPad Prism®, Prism 5 for windows, version 5.01 (GraphPad Software Inc., CA). (SRB Buffers FIG. 25).

[7] = test system: Human hepatocellular carcinoma cell lines; assay: Monolayer assay, human hepatocellular carcinoma cell lines, 96h treatment (geomean of three lines); assay type: cell-based
Protocol: as §3
CROMOC36—in vitro activity Human hepatocellular carcinoma cell lines IC50 values of CROMOC36 and Sorafenib, 96h treatment. […] The individual results for CROMOC36 are included in FIG. 24. […] The individual results for Sorafenib are included in (FIG. 24).

[8] = Toxicology experiments and various tumor models, cardiotoxicity; assay type: in vivo
[9] = CROMOC36 4 mg/kg, q2dx5, single agent
[10] = combination of CROMOC36 and CYPP

B1: CROMOC36: single chain PvuII endonuclease fused at its C-terminus to DDM36, PEGylated final product used in the Examples (protein)
chain: MSHPDLNKLLELWPHIQEYQDLALKHGINDIFQDNGGKLLQVLLITGLTVLPGREGNDAVDNAGQEYELKSINIDLTKGFSTHHHMNPVIIAKYRQVPWIFAIYRGIAIEAIYRLEPKDLEFYYDKWERKWYSDGHKDINNPKIPVKYVMEHGTKIYGSGGSGGSSHPDLNKLLELWPHIQEYQDLALKHGINDIFQDNGGKLLQVLLITGLTVLPGREGNDAVDNAGQEYELKSINIDLTKGFSTHHHMNPVIIAKYRQVPWIFAIYRGIAIEAIYRLEPKDLEFYYDKWERKWYSDGHKDINNPKIPVKYVMEHGTKIYGNSGSGKKKKKGKGSGLGSGKKKDPLGSGLGSGKKKKKGKGSGLGSGKKKDPLGST
modifications: PEGylated; peptide, CROMOC36
IC50 (PATU8988T): 2.79 nM | IC50 [1]: ≤ 100 nM | IC50 (HUPT3): ~10 nM | IC50 ([2]; 13 pancreatic cell lines, four days treatment, read-out: geomean IC50): 45.9 nM | antitumor activity ([2]; on five of the cell lines tested, up to 1 μM): no activity or only marginal activity | IC50 (PAXF 1657L): 4.73 nM | tumor growth inhibition compared to controls ([3]; CROMOC36 32/kg s.c. + doxorubicin 4+4 mg/Kg i.v.): 89% | tumor growth inhibition (TGI) compared to controls ([3]; single agent, CROMOC36 32 mg/Kg s.c., doxorubicin 8 mg/kg i.v.): 82% | times less cytotoxic to immortalized non-tumor cells than to cancer cells [4]: 40->100 | inhibition of total number of metastases ([5]; CROMOC36 0.4 mg/kg): 24% | inhibition of total number of metastases ([5]; CROMOC36 4 mg/kg): 66% | reduction of number of large metastases [5, 9]: 69.1% | reduction of number of medium metastases [5, 9]: 49.2% | reduction of number of small metastases [5, 9]: 61.2% | tolerability ([5]; LLC model): No major issues | inhibition of number of metastases ([5]; combination of CROMOC36 (4 mg/kg) and CYPP (180 mg/kg)): 81% | final decrease in body weight (BW) compared to the start of the experiment [5, 10]: 3.7% | reduction of number of large metastases [5, 10]: 89.2% | reduction of number of medium metastases [5, 10]: 66.7% | reduction of number of small metastases [5, 10]: 81.1% | tumor growth inhibition (TI), primary tumor ([5]; simultaneous combination of CROMOC36 and CYPP): 85.6% | tumor growth inhibition (TI), primary tumor ([5]; single agent, CROMOC36 s.c. q2dx5): 15.2% | IC50 [6]: 0.5 to 19 nM | potency compared to Sorafenib ([7]; geomean IC50 of three HCC cell lines): over 300 fold | IC50 ([7]; three HCC cell lines, 96h treatment): 14.1 nM | cardiotoxic effects [8]: no cardiotoxic effects were observed
